According to patent US20240218065A1 (SHENGHE CHINA BIOPHARMACEUTICAL, published 2024):

B1: DN15-B (bispecific antibody, human IgG1, kappa)
light: DIQMTQSPSTLSASVGDRVTITCSASSSVSSMHWYQQKPGKAPKLLIYSTSNLASGVPSRFSGSGSGTEYTLTISSLQPDDFATYYCHHWTSYMYTFGGGTKVEIKRTVAAPSVFIFPPSDEQLKSGTASVVCLLNNFYPREAKVQWKVDNALQSGNSQESVTEQDSKDSTYSLSSTLTLSKADYEKHKVYACEVTHQGLSSPVTKSFNRGEC
heavy 1: not shown
heavy 2: EVQLVESGGGLVQPGGSLRLSCAASGITFSRSVMGWFRQAPGKLRELVAGITSDDNTDYADSVKGRFTISRDNSKNTLYLQMNSLRAEDTAVYYCNILPDSRLGWGQGTLVTVSSGGGGSGGGGSGGGGSQVQLVQSGSELKKPGASVKVSCKASGYIFTDYAIHWVRQAPGQGLEWMGFINTATGEPTYADDFKGRFVFSLDTSVSTAYLQISSLKAEDTAVYFCTSGVHWGQGTLVTVSSASTKGPSVFPLAPSSKSTSGGTAALGCLVKDYFPEPVTVSWNSGALTSGVHTFPAVLQSSGLYSLSSVVTVPSSSLGTQTYICNVNHKPSNTKVDKKVEPKSCDKTHTCPPCPGGGGSGGGGSPALLLLLLLRPPATRGITCPPPMSVEHADIWVKSYSLYSRERYICNSGFKRKAGTSSLTECVLNKATNVAHWTTPSLKCIRDPALVHQRPAPPSTVTTAGVTPQPESLSPSGKEGGGGSGGGGSAPELLGGPSVFLFPPKPKDTLMISRTPEVTCVVVDVSHEDPEVKFNWYVDGVEVHNAKTKPREEQYNSTYRVVSVLTVLHQDWLNGKEYKCKVSNKALPAPIEKTISKAKGQPREPQVYTLPPSRDELTKNQVSLTCLVKGFYPSDIAVEWESNGQPENNYKTTPPVLDSDGSFFLASKLTVDKSRWQQGNVFSCSVMHEALHNHYTQKSLSLSPGK
notes: Trifunctional antibody against CD24 and NKP30 with IL-15 and IL-15Rα sushi between CH1 and CH2; also called constructed antibody DN15-B; multifunctional antibody
B2: DN15-D (bispecific antibody, human IgG1, kappa)
light: DIQMTQSPSTLSASVGDRVTITCSASSSVSSMHWYQQKPGKAPKLLIYSTSNLASGVPSRFSGSGSGTEYTLTISSLQPDDFATYYCHHWTSYMYTFGGGTKVEIKRTVAAPSVFIFPPSDEQLKSGTASVVCLLNNFYPREAKVQWKVDNALQSGNSQESVTEQDSKDSTYSLSSTLTLSKADYEKHKVYACEVTHQGLSSPVTKSFNRGEC
heavy 1: not shown
heavy 2: QVQLVQSGSELKKPGASVKVSCKASGYIFTDYAIHWVRQAPGQGLEWMGFINTATGEPTYADDFKGRFVFSLDTSVSTAYLQISSLKAEDTAVYFCTSGVHWGQGTLVTVSSASTKGPSVFPLAPSSKSTSGGTAALGCLVKDYFPEPVTVSWNSGALTSGVHTFPAVLQSSGLYSLSSVVTVPSSSLGTQTYICNVNHKPSNTKVDKKVEPKSCDKTHTCPPCPGGGGSGGGGSPALLLLLLLRPPATRGITCPPPMSVEHADIWVKSYSLYSRERYICNSGFKRKAGTSSLTECVLNKATNVAHWTTPSLKCIRDPALVHQRPAPPSTVTTAGVTPQPESLSPSGKEGGGGSGGGGSAPELLGGPSVFLFPPKPKDTLMISRTPEVTCVVVDVSHEDPEVKFNWYVDGVEVHNAKTKPREEQYNSTYRVVSVLTVLHQDWLNGKEYKCKVSNKALPAPIEKTISKAKGQPREPQVYTLPPSRDELTKNQVSLTCLVKGFYPSDIAVEWESNGQPENNYKTTPPVLDSDGSFFLASKLTVDKSRWQQGNVFSCSVMHEALHNHYTQKSLSLSPGKGGGGSGGGGSGGGGSGGGGSEVQLVESGGGLVQPGGSLRLSCAASGITFSRSVMGWFRQAPGKLRELVAGITSDDNTDYADSVKGRFTISRDNSKNTLYLQMNSLRAEDTAVYYCNILPDSRLGWGQGTLVTVSS
notes: Trifunctional antibody against CD24 and NKP30 with IL-15 and IL-15Rα sushi between CH1 and CH2; also called constructed antibody DN15-D; multifunctional antibody

How the values were obtained:
[1] = biological target: T1, Human-NKP30-His (Kactus, cat: NKP-HM430) (human, UniProt O14931 19-138, limits assumed); assay: ELISA: Human-NKP30-His coated at 0.2 µg/mL, antibody titrated 3-fold from 10 µg/mL (7 points), HRP goat anti-human IgG-Fc, OD450-OD570
T1 construct: also called NKP30 protein; NKP30-his protein; not shown: His tag
T1 sequence (looked up): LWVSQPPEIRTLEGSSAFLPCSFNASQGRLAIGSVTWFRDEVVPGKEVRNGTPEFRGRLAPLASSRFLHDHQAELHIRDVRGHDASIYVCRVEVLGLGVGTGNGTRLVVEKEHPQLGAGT
Experimental: Human-NKP30-His (Kactus, cat: NKP-HM430) was diluted to 0.2 μg/mL with PBS buffer at pH 7.4, added into the 96-well ELISA plate at 100 μL per well, coated overnight at 4° C., and blocked with 1% BSA blocking solution for 1 hour. The plate was washed 3 times with PBST, and the constructed expressing antibody was diluted to 10 μg/mL with 0.5% BSA sample diluent as the starting concentration, and then diluted by 3-fold gradient (7 gradients in total). A negative control (blank well and IgG1 isotype control) and a positive control were set, and the positive control was the NKP30 humanized antibody (sequence shown in SEQ ID No. 28), and incubated at 37° C. for 1 h at 100 μL per well. The plate was washed 3 times with PBST, and then HRP-labelled goat anti-human IgG-Fc was diluted with the sample diluent at 1:20000. 100 μL was added into each well, and incubated at room temperature for 1 hour. The plate was washed 4 times with PBST, and 100 μL of TMB substrate was added into each well, and incubated at room temperature without light for 10 minutes. 100 μL of 1 M HCl solution was added into each well to terminate the color development reaction. The absorbance value of each well in the 96-well plate was determined by selecting the wavelength of 450 nm and the reference wavelength of 570 nm on a multifunctional enzyme marker, and the absorbance value (OD)=OD₄₅₀ₙₘ−OD₅₇₀ₙₘ. The logarithm of the concentration of the constructed antibody was taken as the abscissa, and the measured absorbance value of each well was taken as the ordinate, and the Sigmoidaldose-response (Variable Slope) method (GraphPad Prism software, GraphPad Software, San Diego, California) was selected for nonlinear regression to obtain the binding curve of the target antibody to NKP30.

[2] = biological target: T2, huCD24-humanFC (Acro, cat: CD4-H5254) (human, UniProt P25063 27-59); assay: Bridging ELISA: huCD24-humanFC coated at 0.3 µg/mL, antibody titrated 3-fold from 20 µg/mL, then NKP30-his at 0.3 µg/mL, HRP anti-His antibody, OD450-OD570
T2 construct: also called CD24 protein; not shown: human Fc
T2 chain (looked up): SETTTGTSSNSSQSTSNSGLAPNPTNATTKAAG
Experimental: The huCD24-humanFC (Acro, cat: CD4-H5254) was diluted to 0.3 μg/mL with PBS buffer at pH 7.4, added into the 96-well ELISA plate at 100 μL per well, coated overnight at 4° C., and blocked with 1% BSA blocking solution for 1 hour. The plate was washed 3 times with PBST, and the purified antibody was diluted to 20 μg/mL with 0.5% BSA sample diluent as the starting concentration, and then diluted by 3-fold gradient (11 gradients in total). An irrelevant antibody was set as the negative control and incubated at 37° C. for 1 h at 50 μL per well. The plate was washed 3 times with PBST, and the NKP30-his protein was diluted to 0.3 μg/mL. 100 μL was added into each well, and incubated at room temperature for 1 h. The plate was washed 3 times with PBST, and then HRP-labelled his antibody was diluted with the sample diluent at 1:5000. 100 μL was added into each well, and incubated at room temperature for 1 h. The plate was washed 4 times with PBST, 100 μL of TMB substrate was added into each well, and incubated at room temperature without light for 10 min. 100 μL of 1 M HCl solution was added into each well to terminate the color development reaction. The absorbance value of each well in the 96-well plate was determined by selecting the wavelength of 450 nm and the reference wavelength of 570 nm on a multifunctional enzyme marker, and the absorbance value (OD)=OD₄₅₀ₙₘ−OD₅₇₀ₙₘ. The logarithm of antibody concentration was taken as the abscissa, and the measured absorbance value of each well was taken as the ordinate, and the Sigmoidaldose-response (Variable Slope) method (GraphPad Prism software, GraphPad Software, San Diego, California) was selected for nonlinear regression to obtain the binding curve of the target antibody to CD24 and NKP30 proteins at both ends.

| Binder | binding result [1] | EC50 (read off the curve) [2] [µg/mL] |
| --- | --- | --- |
| B1 | binds | ~0.1 |
| B2 | binds | ~0.2 |
